Each block holds one binder with its values, some of them ahead of it.
Assays:
[1] = target: T1, Class II MHC (mouse, on splenocytes and lymphoid organs) (mouse, UniProt P14434 24-256; P14483 28-265); assay: FACS, splenocytes stained in vitro with different concentrations of Alexa647-labeled DC8 monomer or dimer; reference DC8 monomer
T1 construct: whole, on cells; also called Class II MHC products; Class II MHC molecules
T1 sequence (MHC II alpha, looked up): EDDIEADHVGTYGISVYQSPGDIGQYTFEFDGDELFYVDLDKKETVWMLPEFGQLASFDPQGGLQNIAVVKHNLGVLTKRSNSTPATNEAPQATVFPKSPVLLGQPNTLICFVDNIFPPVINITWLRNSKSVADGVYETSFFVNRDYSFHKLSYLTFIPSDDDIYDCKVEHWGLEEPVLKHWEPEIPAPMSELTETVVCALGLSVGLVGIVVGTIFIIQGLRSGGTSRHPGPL
T1 sequence (MHC II beta, looked up): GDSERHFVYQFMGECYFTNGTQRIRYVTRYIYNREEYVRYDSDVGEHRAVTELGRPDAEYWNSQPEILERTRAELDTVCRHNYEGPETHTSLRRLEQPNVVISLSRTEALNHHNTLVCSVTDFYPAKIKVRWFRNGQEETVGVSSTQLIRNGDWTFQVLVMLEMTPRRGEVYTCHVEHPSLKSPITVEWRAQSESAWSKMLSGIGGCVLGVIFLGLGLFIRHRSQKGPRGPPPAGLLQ
Method: (§1) FIGS. 3A-3D (FIGS. 3A-3B) show dimers that are able to stain their targets with increased efficiency compared to their corresponding monomers; for FIG. 3A: cells were stained in vitro with the indicated concentrations of Alexa647-labeled VHH monomers or dimers; for FIG. 3B: equal amount of DC8 monomer and DC8-dimer is injected IV. 2 h p.i., the mice are euthanized and spleens are excised for two-photon imaging. (FIG. 3C) Equal amount of DC8 with or without PEG, both equipped with Texas Red is injected IV. 3 h p.i., the mice are euthanized and spleens are excised for two-photon imaging. (FIG. 3D) Equal amount of DC8 with or without PEG (0.4 nmols), all equipped with Alexa647 is injected IV. 3 h p.i., the mice are euthanized and spleen is excised. Cells were harvested and analyzed with FACS.
(§2) Four sortase substrates were designed and synthesized for production of dimers or PEGylated VHHs (FIG. 1). The substrates either contain two bioorthogonal handles or a handle and a fluorophore. The Alexa647-labeled substrate was designed such that the reaction products could be used in FACS experiments to estimate relative in vitro binding affinities. […] For DC8 (anti Class II), splenocytes were stained with different concentrations of monomers and dimers and analyzed by FACS. […] The in vivo binding characteristics of the VHH dimers versus monomers were evaluated. […]

[2] = target: T1, Class II MHC (mouse, on splenocytes and …); assay: FACS of spleen cells harvested 3 h after i.v. injection of Alexa647-labeled VHH into B6 mice; reference non-PEGylated DC8
Text: Specificity was established by blocking the targets of these VHHs by introduction of unlabeled VHHs as competitors prior to imaging. […] To further confirm the specificity of the dimers in the absence of competing VHHs, MHC II^{-/-} and CD11b^{-/-} mice were imaged. No PET signals were detected in lymphoid organs, further confirming the specificity of both dimers (FIGS. 4E-4G). […] These experiments helped set the stage to explore ability of VHH dimers to image tumors. Two types of tumors were imaged with the developed bivalent VHHs by engraftment of mice with the B16 melanoma or the pancreatic tumor cell line panc02. Both the dimers readily detected the lymphoid organs as well as the B16 melanoma tumor or the panc02 graft. Upon excision, the panc-tumors were no more than ˜1-2 mm in diameter, showing the method to be sensitive. Postmortem biodistribution analysis correlated well with the FACS and two-photon results as well (FIGS. 5A-5B). It was examined whether circulatory half-life could be manipulated to further improve the signal to noise ratio. PEGylation of VHHs results in increased circulatory half-life, where the increase correlates with the size of the attached PEG group^{[15]}. VHHs sortagged with substrate 2 or 3 were reacted with DBCO-functionalized PEG (5 kDa, 10 kDa or 20 kDa) to yield the final PEGylated VHHs (FIGS. 2E-2F). B6 mice received 5 μg of PEGylated VHH and were euthanized 3 h later, followed by dissection of lymph nodes and spleen for FACS and two-photon microscopy.

[3] = target: T2, CD11b (mouse, on the CD11b+ mutuDC dendritic cell line and on myeloid cells in vivo) (mouse, UniProt P05555 17-1153); assay: FACS, CD11b+ mutuDC dendritic cell line stained in vitro with Alexa647-labeled DC13 monomer or dimer; reference DC13 monomer
T2 construct: whole, on cells; On cells CD11b is paired with CD18
Method: as §1, §2

T2 sequence (P05555 17-1153): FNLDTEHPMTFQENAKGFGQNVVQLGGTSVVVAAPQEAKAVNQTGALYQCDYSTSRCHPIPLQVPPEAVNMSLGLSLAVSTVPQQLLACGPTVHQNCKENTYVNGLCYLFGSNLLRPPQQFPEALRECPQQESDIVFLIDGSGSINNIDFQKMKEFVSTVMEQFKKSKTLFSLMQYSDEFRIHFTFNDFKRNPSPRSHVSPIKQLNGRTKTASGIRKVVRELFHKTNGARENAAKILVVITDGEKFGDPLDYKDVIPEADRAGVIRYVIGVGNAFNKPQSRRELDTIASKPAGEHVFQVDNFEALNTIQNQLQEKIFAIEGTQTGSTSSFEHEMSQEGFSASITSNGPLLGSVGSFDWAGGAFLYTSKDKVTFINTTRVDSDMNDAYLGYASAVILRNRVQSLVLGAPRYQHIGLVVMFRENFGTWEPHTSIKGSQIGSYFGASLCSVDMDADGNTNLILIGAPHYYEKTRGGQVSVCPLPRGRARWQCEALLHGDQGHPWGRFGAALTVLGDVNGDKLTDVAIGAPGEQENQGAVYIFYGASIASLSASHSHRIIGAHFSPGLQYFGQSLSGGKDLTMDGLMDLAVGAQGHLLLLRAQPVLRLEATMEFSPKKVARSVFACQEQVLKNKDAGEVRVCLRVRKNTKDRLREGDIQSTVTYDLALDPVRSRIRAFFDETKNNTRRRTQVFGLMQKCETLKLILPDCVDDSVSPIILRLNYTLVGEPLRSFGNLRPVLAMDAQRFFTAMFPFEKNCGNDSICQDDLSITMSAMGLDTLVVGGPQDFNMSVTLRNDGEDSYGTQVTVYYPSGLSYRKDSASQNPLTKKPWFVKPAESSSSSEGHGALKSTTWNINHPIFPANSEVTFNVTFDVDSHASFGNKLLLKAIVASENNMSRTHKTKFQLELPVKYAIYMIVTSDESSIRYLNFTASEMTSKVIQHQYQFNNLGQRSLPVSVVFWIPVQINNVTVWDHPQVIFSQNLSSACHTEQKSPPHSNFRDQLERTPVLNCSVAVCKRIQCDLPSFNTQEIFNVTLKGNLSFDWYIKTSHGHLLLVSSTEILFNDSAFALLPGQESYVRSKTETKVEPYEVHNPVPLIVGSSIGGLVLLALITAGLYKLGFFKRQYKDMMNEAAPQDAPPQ

B3: DC8-alexa647-PEG-10 kDa (site-specifically PEGylated DC8) (VHH)
VHH: QVQLQESGGGLVQPGGSLRLSCTASGFTFSTYYMSWVRKAPGKGPEWVSVMNSSGGDTRYADFVKGRFTISRDNAKNTLYLQMNSLKPEDTALYYCAQGRSDIYPTFTRGQGTQVTVSS
modifications: C-terminal (Gly)3 continues as -PEG12-Cys(Alexa647, Texas Red or TCO/18F-tetrazine)-PEG5-Lys(azide); the azide is clicked to DBCO-PEG 10 kDa
notes: Alexa647 form used for FACS, 18F form for PET and biodistribution; also called 10 kDa PEG-conjugated DC8; PEGylated DC8-Alexa647
percent increase in staining versus non-PEGylated DC8 [2]: ~100%

B5: DC13 dimer (bivalent anti CD11b VHH, two DC13 joined via their C-termini by sortase and DBCO-azide click chemistry) (VHH)
VHH 1: QVQLQESGGGLVQTGGSLRLSCAASGVDFNWYSMGWFRQAPGKEREYVASIDQGGELDYAISVKGRFTISRDNAKNMVYLQMNSLKPEDTAVYYCAADFSGRGASNPDKYKYWGQGTQVTVSS
VHH 2: B5 VHH 1
modifications: C-terminal (Gly)3 continues as -PEG12-Cys(Alexa647, Texas Red or TCO/18F-tetrazine)-PEG5-Lys(azide); the azide is clicked to the DBCO of the other chain; C-terminal Cys carries maleimide-DBCO, clicked to the azide of the other chain
notes: Label differs by assay (Alexa647, 18F); also called DC13-dimer-Alexa647; 18F-DC13 dimer
fold better binding than the corresponding monomer [3]: ~2.3 fold

Results, then the binder that gave them:

fold better binding than the corresponding monomer [1]: ~3.3 fold
B1: DC8 dimer (bivalent anti Class II MHC VHH, two DC8 joined via their C-termini by sortase and DBCO-azide click chemistry) (VHH)
VHH 1: B3 VHH
VHH 2: B3 VHH
modifications: C-terminal (Gly)3 continues as -PEG12-Cys(Alexa647, Texas Red or TCO/18F-tetrazine)-PEG5-Lys(azide); the azide is clicked to the DBCO of the other chain; C-terminal Cys carries maleimide-DBCO, clicked to the azide of the other chain
notes: Label differs by assay (Alexa647, Texas Red, 18F); also called 18F-DC8 dimer; anti Class II MHC dimer

percent increase in staining versus non-PEGylated DC8 [2]: ~30%
B2: DC8-alexa647-PEG-5 kDa (site-specifically PEGylated DC8) (VHH)
VHH: B3 VHH
modifications: C-terminal (Gly)3 continues as -PEG12-Cys(Alexa647, Texas Red or TCO/18F-tetrazine)-PEG5-Lys(azide); the azide is clicked to DBCO-PEG 5 kDa
notes: Alexa647 form used for FACS, 18F form for PET and biodistribution; also called 5 kDa PEG-conjugated DC8; PEGylated DC8-Alexa647

percent increase in staining versus non-PEGylated DC8 [2]: ~220%
B4: DC8-Alexa647-PEG-20 kDa (site-specifically PEGylated DC8) (VHH)
VHH: B3 VHH
modifications: C-terminal (Gly)3 continues as -PEG12-Cys(Alexa647, Texas Red or TCO/18F-tetrazine)-PEG5-Lys(azide); the azide is clicked to DBCO-PEG 20 kDa
notes: Alexa647 form used for FACS, 18F form for PET and biodistribution; also called 20 kDa PEG-conjugated DC8; PEGylated DC8-Alexa647

Source: patent publication US20240325575A1 (WHITEHEAD INSTITUTE FOR BIOMEDICAL RESEARCH, published 2024)
